# Experimental data as given in the supplement of paper PMC9112550, “Optimization of the antimicrobial peptide Bac7 by deep mutational scanning” (BMC Biology, 2022).
# Tested on: Escherichia coli TOP10
# Assay: shrunken log2 fold change of peptide-encoding DNA abundance (4.5 h post-induction vs induction); higher = less antimicrobial activity (less host growth inhibition)
# Conditions: time post-induction: 4.5 h; library: site-saturation at positions 5, 18, 19, 20
# 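Further: peptides expressed intracellularly from a pBAD plasmid library in pooled LB shake-flask culture, induced with 0.3% L-arabinose, DNA abundance read by NGS, three biological replicates, DESeq2 with apeglm shrinkage.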
row,Sequence,shrunken log2 fold change
1,RRIRPRPPRLPRPRPRPCSPPRP,0.0563
2,RRIRWRPPRLPRPRPRPFYLPRP,-0.336
3,RRIRHRPPRLPRPRPRPGITPRP,-0.453
4,RRIRCRPPRLPRPRPRPPGFPRP,0.822
5,RRIRWRPPRLPRPRPRPSCLPRP,-0.0337
6,RRIRTRPPRLPRPRPRPSEQPRP,0.0636
7,RRIRRRPPRLPRPRPRPHAMPRP,0.191
8,RRIRYRPPRLPRPRPRPMTDPRP,-0.0354
9,RRIRVRPPRLPRPRPRPFSGPRP,-0.337
10,RRIRRRPPRLPRPRPRPCYRPRP,0.0724
11,RRIRMRPPRLPRPRPRPCWFPRP,-0.0997
12,RRIRHRPPRLPRPRPRPASSPRP,0.0164
13,RRIRHRPPRLPRPRPRPFPEPRP,-0.104
14,RRIRPRPPRLPRPRPRPPQIPRP,0.138
15,RRIRERPPRLPRPRPRPDTQPRP,-0.116
16,RRIRVRPPRLPRPRPRPPVWPRP,0.312
17,RRIRQRPPRLPRPRPRPWPTPRP,0.00213
18,RRIRERPPRLPRPRPRPGQNPRP,-0.0659
19,RRIRHRPPRLPRPRPRPDPRPRP,0.0959
20,RRIRARPPRLPRPRPRPLCSPRP,0.197
21,RRIRLRPPRLPRPRPRPDMVPRP,-0.175
22,RRIRVRPPRLPRPRPRPTFFPRP,0.0435
23,RRIRTRPPRLPRPRPRPIYMPRP,-0.442
24,RRIRSRPPRLPRPRPRPPAIPRP,0.413
25,RRIRERPPRLPRPRPRPFAAPRP,0.229
26,RRIRERPPRLPRPRPRPQMMPRP,-0.0543
27,RRIRDRPPRLPRPRPRPQKHPRP,-0.108

row,Sequence,shrunken log2 fold change
1,RRIRGRPPRLPRPRPRPLLHPRP,0.762
2,RRIRVRPPRLPRPRPRPTMHPRP,-0.103
3,RRIRARPPRLPRPRPRPHREPRP,0.0826
4,RRIRRRPPRLPRPRPRPELVPRP,0.27
5,RRIRQRPPRLPRPRPRPHNYPRP,-0.437
6,RRIRMRPPRLPRPRPRPVELPRP,-0.281
7,RRIRHRPPRLPRPRPRPTFCPRP,-0.186
8,RRIRIRPPRLPRPRPRPYDKPRP,-0.224
9,RRIRRRPPRLPRPRPRPLYGPRP,0.0447
10,RRIRQRPPRLPRPRPRPAASPRP,0.129
11,RRIRYRPPRLPRPRPRPQSEPRP,-0.37
12,RRIRVRPPRLPRPRPRPVKQPRP,-0.0475
13,RRIRSRPPRLPRPRPRPGNHPRP,-0.311
14,RRIRCRPPRLPRPRPRPHIFPRP,-1.15
15,RRIRIRPPRLPRPRPRPPVTPRP,-0.287
16,RRIRVRPPRLPRPRPRPEIEPRP,0.173
17,RRIRHRPPRLPRPRPRPTYTPRP,-0.00607
18,RRIRMRPPRLPRPRPRPVRGPRP,1.18
19,RRIRGRPPRLPRPRPRPICQPRP,0.655
20,RRIRIRPPRLPRPRPRPRHEPRP,0.0234
21,RRIRERPPRLPRPRPRPQIFPRP,-0.0392
22,RRIRDRPPRLPRPRPRPLFIPRP,-0.184
23,RRIRFRPPRLPRPRPRPMCQPRP,-0.123
24,RRIRMRPPRLPRPRPRPRTHPRP,0.28
25,RRIRVRPPRLPRPRPRPYQCPRP,-0.185
26,RRIRKRPPRLPRPRPRPIFMPRP,0.0293
27,RRIRGRPPRLPRPRPRPFVRPRP,0.0432
